This is an account of results in patent publication US20160263148A1 (University of Washington, published 2016).

Data set [1] addresses T1, Fibrin (pure fibrin clots formed from fibrinogen and thrombin) (UniProt P02671 36-629; P02675 45-491; P02679 27-437, limits assumed).
T1 sequence (looked up) 1: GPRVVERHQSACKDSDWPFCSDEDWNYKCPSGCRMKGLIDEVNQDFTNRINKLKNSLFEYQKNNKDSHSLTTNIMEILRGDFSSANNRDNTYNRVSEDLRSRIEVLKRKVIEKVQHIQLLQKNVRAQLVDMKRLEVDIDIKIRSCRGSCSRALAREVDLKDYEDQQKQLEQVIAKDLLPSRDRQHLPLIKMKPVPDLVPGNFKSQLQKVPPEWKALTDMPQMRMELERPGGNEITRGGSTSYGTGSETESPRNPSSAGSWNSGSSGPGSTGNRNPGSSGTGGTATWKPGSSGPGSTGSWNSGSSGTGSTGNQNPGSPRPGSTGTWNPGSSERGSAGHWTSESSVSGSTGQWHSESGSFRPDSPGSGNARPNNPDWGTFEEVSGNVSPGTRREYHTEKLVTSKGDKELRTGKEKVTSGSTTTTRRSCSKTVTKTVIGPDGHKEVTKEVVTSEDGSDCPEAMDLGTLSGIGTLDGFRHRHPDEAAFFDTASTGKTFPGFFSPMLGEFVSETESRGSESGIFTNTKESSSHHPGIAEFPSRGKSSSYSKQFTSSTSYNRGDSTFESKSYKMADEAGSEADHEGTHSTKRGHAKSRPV
T1 sequence (looked up) 2: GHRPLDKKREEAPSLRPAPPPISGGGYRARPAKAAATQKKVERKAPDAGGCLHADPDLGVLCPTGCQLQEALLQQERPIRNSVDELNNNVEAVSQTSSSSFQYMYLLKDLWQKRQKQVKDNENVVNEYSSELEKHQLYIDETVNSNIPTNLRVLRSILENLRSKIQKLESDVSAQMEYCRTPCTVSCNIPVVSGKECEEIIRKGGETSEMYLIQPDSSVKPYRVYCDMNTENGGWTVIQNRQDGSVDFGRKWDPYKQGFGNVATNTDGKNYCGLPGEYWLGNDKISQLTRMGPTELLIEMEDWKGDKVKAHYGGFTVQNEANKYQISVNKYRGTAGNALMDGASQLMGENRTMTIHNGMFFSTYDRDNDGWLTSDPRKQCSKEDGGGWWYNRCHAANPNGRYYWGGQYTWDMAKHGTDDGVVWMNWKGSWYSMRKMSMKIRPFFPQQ
T1 sequence (looked up) 3: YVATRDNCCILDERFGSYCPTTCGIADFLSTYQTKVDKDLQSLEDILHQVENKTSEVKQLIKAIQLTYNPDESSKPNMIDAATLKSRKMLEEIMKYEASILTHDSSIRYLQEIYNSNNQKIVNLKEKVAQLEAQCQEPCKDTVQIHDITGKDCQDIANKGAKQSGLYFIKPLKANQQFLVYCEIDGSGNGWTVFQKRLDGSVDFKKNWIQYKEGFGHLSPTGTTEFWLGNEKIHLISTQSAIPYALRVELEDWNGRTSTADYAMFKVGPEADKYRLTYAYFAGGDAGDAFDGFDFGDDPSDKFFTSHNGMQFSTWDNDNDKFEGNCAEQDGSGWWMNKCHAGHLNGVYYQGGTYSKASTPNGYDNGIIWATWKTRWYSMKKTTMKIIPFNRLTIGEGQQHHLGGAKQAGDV
In words: cell-based or functional assay.

Data set [2] addresses T2, Fibrin (pure fibrin clots formed from fibrinogen and thrombin), P02671.
T2 chain 1: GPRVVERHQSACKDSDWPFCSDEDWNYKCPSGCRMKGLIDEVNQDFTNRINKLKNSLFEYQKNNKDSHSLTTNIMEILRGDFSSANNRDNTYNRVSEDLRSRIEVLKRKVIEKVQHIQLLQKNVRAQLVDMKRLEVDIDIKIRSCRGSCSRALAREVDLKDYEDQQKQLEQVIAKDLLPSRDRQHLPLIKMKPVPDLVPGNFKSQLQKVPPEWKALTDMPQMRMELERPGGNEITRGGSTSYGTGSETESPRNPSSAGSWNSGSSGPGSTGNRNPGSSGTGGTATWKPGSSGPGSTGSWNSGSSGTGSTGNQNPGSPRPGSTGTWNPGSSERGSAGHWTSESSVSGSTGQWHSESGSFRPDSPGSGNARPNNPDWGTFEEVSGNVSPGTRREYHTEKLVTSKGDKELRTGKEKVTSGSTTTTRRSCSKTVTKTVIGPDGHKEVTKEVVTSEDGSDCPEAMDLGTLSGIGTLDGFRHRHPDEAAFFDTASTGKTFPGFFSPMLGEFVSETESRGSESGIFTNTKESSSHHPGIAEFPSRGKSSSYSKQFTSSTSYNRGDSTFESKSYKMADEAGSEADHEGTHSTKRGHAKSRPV
T2 chain 2: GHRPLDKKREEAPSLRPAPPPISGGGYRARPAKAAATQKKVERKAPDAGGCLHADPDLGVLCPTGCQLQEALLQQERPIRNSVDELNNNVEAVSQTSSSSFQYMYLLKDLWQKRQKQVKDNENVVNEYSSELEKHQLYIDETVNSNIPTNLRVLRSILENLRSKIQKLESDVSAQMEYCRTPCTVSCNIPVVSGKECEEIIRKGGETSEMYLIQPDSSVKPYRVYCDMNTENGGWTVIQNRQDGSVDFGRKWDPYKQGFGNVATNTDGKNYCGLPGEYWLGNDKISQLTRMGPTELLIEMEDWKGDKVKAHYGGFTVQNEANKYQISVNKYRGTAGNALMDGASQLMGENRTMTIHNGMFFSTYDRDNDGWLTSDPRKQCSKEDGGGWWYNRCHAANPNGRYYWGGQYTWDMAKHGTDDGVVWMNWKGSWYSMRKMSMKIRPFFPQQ
T2 chain 3: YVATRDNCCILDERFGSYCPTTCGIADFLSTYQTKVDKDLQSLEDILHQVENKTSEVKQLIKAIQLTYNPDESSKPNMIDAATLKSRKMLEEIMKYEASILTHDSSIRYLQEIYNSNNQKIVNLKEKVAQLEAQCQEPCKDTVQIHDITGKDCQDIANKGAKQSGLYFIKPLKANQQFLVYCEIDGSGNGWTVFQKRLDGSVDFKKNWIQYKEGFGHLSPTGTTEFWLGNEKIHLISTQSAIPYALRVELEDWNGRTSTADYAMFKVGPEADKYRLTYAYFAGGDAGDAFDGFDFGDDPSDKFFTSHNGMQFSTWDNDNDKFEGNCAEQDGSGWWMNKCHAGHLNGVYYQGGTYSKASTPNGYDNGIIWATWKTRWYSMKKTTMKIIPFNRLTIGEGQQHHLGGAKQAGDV

Positions of bridges follow the written chain, without caps; N, C: chain ends. Non-standard residues stand in square brackets, D forms with d. p(HEMA-co-NHSMA) = copolymer of 2-hydroxyethyl methacrylate and N-hydroxysuccinimidyl ester methacrylate; Hyp = O=C(O)[C@@H]1C[C@@H](O)CN1

B1: Hemostatic polymer (HP): linear p(HEMA-co-NHSMA) backbone grafted with the cyclic fibrin-binding peptide Ac-Y(DGI)C(HPr)YGLCYIQGK (other)
peptide: Ac-Y[dE]C[Hyp]YGLCYIQGK(p(HEMA-co-NHSMA))-NH2
modifications: disulfide 3-8; also: about 16 peptides grafted per polymer backbone
With B1, the “clot strength (MA, TEG) relative to controls” value in data set [1] turned out to be 2.5 times.

B2: Human Factor XIIIa (HFXIIIa) (protein)
chain: GVNLQEFLNVTSVHLFKERWDTNKVDHHTDKYENNKLIVRRGQSFYVQIDFSRPYDPRRDLFRVEYVIGRYPQENKGTYIPVPIVSELQSGKWGAKIVMREDRSVRLSIQSSPKCIVGKFRMYVAVWTPYGVLRTSRNPETDTYILFNPWCEDDAVYLDNEKEREEYVLNDIGVIFYGEVNDIKTRSWSYGQFEDGILDTCLYVMDRAQMDLSGRGNPIKVSRVGSAMVNAKDDEGVLVGSWDNIYAYGVPPSAWTGSVDILLEYRSSENPVRYGQCWVFAGVFNTFLRCLGIPARIVTNYFSAHDNDANLQMDIFLEEDGNVNSKLTKDSVWNYHCWNEAWMTRPDLPVGFGGWQAVDSTPQENSDGMYRCGPASVQAIKHGHVCFQFDAPFVFAEVNSDLIYITAKKDGTHVVENVDATHIGKLIVTKQIGGDGMMDITDTYKFQEGQEEERLALETALMYGAKKPLNTEGVMKSRSNVDMDFEVENAVLGKDFKLSITFRNNSHNRYTITAYLSANITFYTGVPKAEFKKETFDVTLEPLSFKKEAVLIQAGEYMGQLLEQASLHFFVTARINETRDVLAKQKSTVLTIPEIIIKVRGTQVVGSDMTVTVEFTNPLKETLRNVWVHLDGPGVTRPMKKMFREIRPNSTVQWEEVCRPWVSGHRKLIASMSSDSLRHVYGELDVQIQRRPSM
For the molecule B2, the “pore radius of fibrin clots (permeation study)” value in data set [2] came out at 286±18 nm.
